Experimental data reported in PMC2653193, “A Unique Dual Activity Amino Acid Hydroxylase in Toxoplasma gondii” (PLoS ONE, 2009).
Positions count from the first letter of the chain named.

T1: TgAaaH2 (Toxoplasma gondii, UniProt B2L7T2)
T1 construct: gene AaaH2; N-terminal 23 residues (predicted signal peptide) removed; N-terminal 6xHis tag (pET 45b) kept; E. coli BL21; full-length ORF 565 residues; primer text says begins at residue 23
T1 sequence (B2L7T2 23-565): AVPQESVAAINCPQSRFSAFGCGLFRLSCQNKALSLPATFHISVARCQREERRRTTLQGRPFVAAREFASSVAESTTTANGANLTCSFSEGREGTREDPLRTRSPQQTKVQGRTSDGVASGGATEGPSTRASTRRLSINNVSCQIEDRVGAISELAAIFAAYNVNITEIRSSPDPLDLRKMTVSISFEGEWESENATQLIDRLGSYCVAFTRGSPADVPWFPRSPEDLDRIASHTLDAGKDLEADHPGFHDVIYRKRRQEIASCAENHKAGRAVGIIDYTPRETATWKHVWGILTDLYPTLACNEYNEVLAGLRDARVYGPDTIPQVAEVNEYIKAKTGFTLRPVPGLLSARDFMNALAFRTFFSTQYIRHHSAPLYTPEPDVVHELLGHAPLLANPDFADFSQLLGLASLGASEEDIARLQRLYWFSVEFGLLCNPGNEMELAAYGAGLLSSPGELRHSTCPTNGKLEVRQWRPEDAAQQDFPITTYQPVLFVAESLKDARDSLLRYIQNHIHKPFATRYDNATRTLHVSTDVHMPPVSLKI

T2: TgAaaH1 (Toxoplasma gondii, UniProt B2L7T1)
T2 construct: gene AaaH1; N-terminal 23 residues (predicted signal peptide) removed; N-terminal 6xHis tag (pET 45b) kept; E. coli BL21; full-length ORF 565 residues; primer text says begins at residue 23
T2 sequence (B2L7T1 23-565): T1 sequence (B2L7T2 23-565) with E469V, E496K, D533E, H535R, M536A, P537L, K542R, I543F

B1: TgAaaH1 (Toxoplasma gondii) (protein)
chain: T1 sequence (B2L7T2 23-565) with E469V, E496K, D533E, H535R, M536A, P537L, K542R, I543F
notes: N-terminal 23 residues (predicted signal peptide) removed; N-terminal 6xHis tag (pET 45b) kept; E. coli BL21; full-length ORF 565 residues; primer text says begins at residue 23
B2: TgAaaH2 (Toxoplasma gondii) (protein)
chain: T1 sequence (B2L7T2 23-565)
notes: as for B1

How the values were obtained:
TgAaaH2 = molecular target: T1, TgAaaH2; test: coupled dihydropteridine reductase assay, NADH oxidation at […] nm; assay type: biochemical; conditions: 50 µM amino acid (tyrosine in Figure 4B), 0-500 µM 6-MPH4, 500 µM NADH, 10 µM ferrous ammonium sulphate, 50 mM HEPES, pH 7.5, 32°C; range printed jointly for both enzymes, not assigned
TgAaaH1 = molecular target: T2, TgAaaH1; test: as above; assay type: biochemical; conditions: 50 µM amino acid (tyrosine in Figure 4B), 0-500 µM 6-MPH4, 500 µM NADH, 10 µM ferrous ammonium sulphate, 50 mM HEPES, pH 7.5, 32°C; range printed jointly for both enzymes, not assigned
purified protein [1] = substrate: N[C@@H](Cc1ccccc1)C(=O)O; test: purified protein; assay type: biochemical, Toxoplasma gondii; conditions: 500 µM 6-MPH4, 500 µM NADH, 10 µM ferrous ammonium sulphate, 50 mM HEPES, pH 7.5, 32°C, 0-200 µM phenylalanine, substrate inhibition at high concentration
purified protein [2] = substrate: N[C@@H](Cc1ccc(O)cc1)C(=O)O; test: purified protein; assay type: biochemical, Toxoplasma gondii; conditions: 500 µM 6-MPH4, 500 µM NADH, 10 µM ferrous ammonium sulphate, 50 mM HEPES, pH 7.5, 32°C, 0-200 µM tyrosine, substrate inhibition at high concentration

Molecule | Km (TgAaaH2) [µM] | Km (TgAaaH1) [µM] | Km (purified protein [1]) [µM] | Vmax (purified protein [1]) [µmol/min/mg] | Km (purified protein [2]) [µM] | Vmax (purified protein [2]) [µmol/min/mg]
CC1CNc2nc(N)[nH]c(=O)c2N1 (stereo not shown) [6-MPH4] | 310 to 318 | 310 to 318 | – | – | – | –
B1 | – | – | 2.45 ± 1.87 | 0.125 ± 0.015 | 1.25 ± 0.69 | 0.137 ± 0.014
B2 | – | – | 14.8 ± 6.4 | 0.145 ± 0.037 | 5.50 ± 3.26 | 0.123 ± 0.001
